# Results taken from patent publication US11739161B2, “Methods for treating and diagnosing prostate cancer” (Tufts Medical Center, Inc., priority 2017, dated 2023).
# B1: RNASE4: recombinant human RNASE4 protein from pET11 expression in E. coli, purified by reversed-phase HPLC; added exogenously (protein, UniProt P34096 29-147, looked up)
# Ribonuclease 4: QDGMYQRFLRQHVHPEETGGSDRYCNLMMQRRKMTLYHCKRFNTFIHEDIWNIRSICSTTNIQCKNGKMNCHEGVVKVTDCRDTGSSRAPNCRYRAIASTRRVVIACEGNPQVPVHFDG
# Key:
# Type in all cases: cell-based, human
# [1] = tested on: PC-3 cells; assay: RNASE4-induced cell proliferation (MTT assay); conditions: exogenous RNASE4 1 μg/ml, PC-3, 2% FBS
# Protocol: (§1) FIGS. 11A-F. RNASE4 induces PC-3 cell proliferation and phosphorylation of AKT and S6. (A) Exogenous RNASE4 (1 μg/ml) stimulates PC-3 cells proliferation in the presence of 2% FBS. Cell numbers were determined by MTT assay. (B) Time course of AKT and S6 phosphorylation of serum-starved PC-3 cells by RNASE4 (1 μg/ml). Left panels, immunoblots; right panels, quantification of p-AKT and p-S6 normalized to total AKT and S6 by Image J. (C) Effect of AKT inhibitor MK-2206, PI3K inhibitors LY294002 and Wortmannin, and mTOR inhibitor Rapamycin on RNASE4-induced PC-3 cell proliferation. Cells were pre-incubated with the inhibitors at the indicated concentrations for 1 hour prior to be stimulated by RNASE4 (1 μg/ml) for 3 days. Cell numbers were determined by MTT assay. (D) Human phospho-RTK antibody array analysis of starved PC-3 cells treated with or without 1 μg/ml RNASE4 for 5 minutes. (E) Time course of AXL phosphorylation stimulated by RNASE4 in PC-3 cells. Serum-starved PC-3 cells were treated with 1 μg/ml RNASE4 for different time. Cell lysates were analyzed for total AXL and phopho-AXL by immunoblotting. Left panels, immunoblots; right panel, quantification phospho-AXL normalized to total AXL by Image J analysis. (F) Effect of AXL inhibitor R428 on RNASE4-induced PC-3 cell proliferation. Serum-starved PC-3 cells were incubated with 1 or 3 μM R428 for 3 hours and then stimulated by 1 μg/ml of RNASE4 for 3 days. Cell numbers were determined by MTT assay. Data shown are means±SEM of a representative experiments in triplicates of 3 independent repeats. **P≤0.01 and ***P≤0.001, by unpaired two-tailed Student's t test.
# [2] = tested on: LNCaP cells; assay: RNASE4 knockdown, colony formation in soft agar; conditions: exogenous RNASE4 1 μg/ml, 14 days
# Excerpt: FIGS. 15A-D. RNASE4 knockdown inhibits LNCaP cell proliferation in vitro and colony formation in soft agar. (A) Immunoblot analysis of RNASE4 in LNCaP cells stably transfected with shControl, shRNASE4-1, and shRNASE4-2. (B) qRT-PCR analysis of RNASE4 mRNA normalized to GAPDH in LNCaP cells stably transfected with shControl, shRNASE4-1, and shRNASE4-2. (C) Effect of RNASE4 knockdown on LNCaP cell proliferation. Cell numbers were counted by Coulter counter. Exogenous RNASE4, when presented, was at the concentration of 1 μg/ml. Data shown are from a representative experiment in triplicates of 3 independent experiments. (D) Effects of RNASE4 knockdown on colonies formation and growth of LNCaP cells in soft agar. The same numbers of control and RNASE4 knockdown cells were seeded in soft agar, and grown in the absence or presence of 1 μg/ml of RNASE4 for 14 days. Colonies were counted and size measured on a Nikon Eclipse ti microscope. Top panels, representative images of colonies; scale bars=100 μm. Bottom panels, quantification of LMCaP cell colonies and sizes in soft agar. Data shown are means±SEM of five randomly selected fields per dish from a representative experiment. **P≤0.01 and ***P≤0.001, by two-tailed Student's t test.
# (§2) Lentiviral mediated shRNA system (pGIPZ, Open Biosystems) was used to generate control and RNASE4 knockdown cell lines. […]
# [3] = tested on: AXL phosphorylation in PC-3 cells; assay: AXL phosphorylation (phospho-RTK array, immunoblot); conditions: serum-starved PC-3, 1 μg/ml RNASE4
# Protocol: as §1, with “Serum-starved PC-3 cells were treated with 1 μg/ml RNASE4 for different time.” left out, “(F) Effect of AXL inhibitor R428 on RNASE4-induced PC-3 cell proliferation. Serum-starved PC-3 cells were incubated with 1 or 3 μM R428 for 3 hours and then stimulated by 1 μg/ml of RNASE4 for 3 days.” left out, “Data shown are means±SEM of a representative experiments in triplicates of 3 independent repeats. **P≤0.01 and ***P≤0.001, by unpaired two-tailed Student's t test.” left out
# Human Phospho-RTK Arrays were purchased from R&D Systems. […] Protein concentrations were quantified by Bradford Assay and 1.5 mg cell lysate was used per array. Pixel densities on were analyzed by ImageJ. […]
# [4] = tested on: PC-3 cells; assay: RNASE4 knockdown, colony formation in soft agar; conditions: PC-3, exogenous RNASE4 1 μg/ml, 14 days
# Excerpt: FIGS. 13A-D. RNASE4 knockdown reduces prostate cancer cell proliferation in vitro and colony formation in soft agar. (A) Immunoblot analysis of RNASE4 in PC-3 cells stably transfected with shControl, shRNASE4-1, and shRNASE4-2. (B) qRT-PCR analysis of RNASE4 mRNA normalized to GAPDH in PC-3 cells stably transfected with shControl, shRNASE4-1, and shRNASE4-2. (C) Effect of RNASE4 knockdown on cell proliferation. Cell numbers were counted by a Coulter counter. Exogenous RNASE4, when presented, was at the concentration of 1 μg/ml. Data shown are from representative experiment (in triplicates) of 3 independent repeats. (D) Effects of RNASE4 knockdown on colonies formation and growth of PC-3 cells in soft agar. The same numbers of control and RNASE4 knockdown cells were seeded in soft agar, and grown in the absence or presence of 1 μg/ml of RNASE4 for 14 days. Colonies were counted and size measured on a Nikon Eclipse ti microscope. Left panels, representative images of colonies; scale bars=100 μm. Right panels, quantification of colony numbers and sizes. Data shown are means±SEM from five randomly selected fields per dish from a representative experiment. *P≤0.05, **P≤0.01, and ***P≤0.001, by two-tailed Student's t test.
# as §2
molecule,measurement,setting,value
B1,cell proliferation,[1],stimulates
same,rescue of the effect of RNASE4 knockdown on colony formation,[2],able to rescue
same,phosphorylation of AXL,[3],induced phosphorylation
same,rescue of the effect of RNASE4 knockdown on colony formation,[4],able to rescue
